The source of these data is article PMC10293011 (Nature Cancer, 2023).

Non-standard residues stand in square brackets, D forms with d. No end group written: not given here. Phe(3,5-F2) = N[C@@H](Cc1cc(F)cc(F)c1)C(=O)O

What all share (conditions): both partners purified
For assay [1], the target named is T1, TEAD2 (A217–D447), YAP-binding domain, His-tagged (human, UniProt Q15562 217-447).
T1 construct: The construct has a TEV site after the His tag; The tag is kept in the TR-FRET/HTRF assays (anti-His detection); Treated with 2.5% hydroxylamine; source: E. coli BL21 (DE3), autoinduction, purified (hydroxylamine treated, size exclusion); not shown: His6, N-terminal, kept
Description: 1D 19F NMR of the free peptides; 20 μM S2, 20 μM S3 and 10 μM TEAD2 in PBS (100% D2O), pH 7.4, 298 K; displacement by addition of 55 μM compound 2, GNE-7883 or pepYAP.

Assay [2] addresses T2, TEAD3 (Q216–D435), YAP-binding domain, His-tagged (human, UniProt Q99594 216-435).
T2 construct: The construct has a TEV site after the His tag; treated with 2.5% hydroxylamine; source: E. coli BL21 (DE3), autoinduction, purified (hydroxylamine treated, size exclusion); not shown: His6, N-terminal, kept
Description: AlphaScreen or HTRF; TEAD–YAP TR-FRET: His-tagged TEAD (YAP-binding domain) with europium anti-His antibody, preincubated 30 min with small molecules; biotinylated YAP peptide (50–100) with streptavidin-XL665; 60 min, room temperature; read at 665 and 615 nm. On the technique in general: In Alpha technology, singlet oxygen from a donor bead excites a nearby acceptor bead.

For assay [3], the target named is T1, TEAD2 (A217–D447), YAP-binding domain, …. As to the kind of experiment: AlphaScreen or HTRF; site 2/site 3-specific HTRF: His-tagged TEAD preincubated 30 min with compounds in 50 mM HEPES pH 7.2, 100 mM NaCl, 0.01% Tween-20, 0.5 mg/ml bovine gamma globulin, 1 mM dithiothreitol; biotinylated probe added for 60 min; europium anti-His and streptavidin-XL665; room temperature.

T1 sequence (Q15562 217-447): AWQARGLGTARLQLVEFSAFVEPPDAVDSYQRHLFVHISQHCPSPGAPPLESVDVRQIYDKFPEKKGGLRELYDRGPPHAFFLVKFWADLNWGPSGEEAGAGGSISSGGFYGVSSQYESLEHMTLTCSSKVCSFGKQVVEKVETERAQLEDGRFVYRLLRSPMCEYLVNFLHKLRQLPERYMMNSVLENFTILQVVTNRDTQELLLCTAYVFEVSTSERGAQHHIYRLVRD
T2 sequence (Q99594 216-435): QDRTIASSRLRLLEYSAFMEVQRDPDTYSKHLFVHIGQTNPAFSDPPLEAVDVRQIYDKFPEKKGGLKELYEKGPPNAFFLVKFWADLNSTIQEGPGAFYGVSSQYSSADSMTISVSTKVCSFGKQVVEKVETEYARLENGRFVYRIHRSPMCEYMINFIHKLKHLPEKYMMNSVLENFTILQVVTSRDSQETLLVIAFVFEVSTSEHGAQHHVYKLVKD

B1: pepYAP, YAP peptide (amino acids 60–100) (peptide)
peptide: DSETDLEALFNAVMNPKTANVPQTVPMRLRKLPDSFFKPPE
notes: source: synthetic peptide, bought: ABclonal
With B1, in assay [1], the binding result was “binds”.

B2: S3, 19F-labeled YAP peptide (residues 80–100) (peptide)
peptide: Ac-VPQTVPMRLRKLPDS[Phe(3,5-F2)]FKPPE
modifications: not fully specified
notes: YAP residues 80–100; Phe95 is 3,5-difluoro-phenylalanine; also called peptide S3; source: synthetic peptide, bought: ABclonal
As for B2, in assay [1], the binding result is listed as “binds”.

B3: biotinylated YAP peptide (amino acids 50–100) (peptide, UniProt P46937 50-100, looked up)
peptide: AGHQIVHVRGDSETDLEALFNAVMNPKTANVPQTVPMRLRKLPDSFFKPPE
modifications: biotin (position not given)
notes: YAP (Yes-associated protein), amino acids 50–100; Held by streptavidin-XL665 in the assay; also called YAP 50–100
As to B3, the binding result in assay [2] was “binds”.

B4: S2, 19F-labeled YAP peptide (residues 59–81) (peptide)
peptide: Ac-GDSETDLEAL[Phe(3,5-F2)]NAVMNPKTANVP
modifications: not fully specified
notes: YAP residues 59–81; Phe69 is 3,5-difluoro-phenylalanine; also called peptide S2; source: synthetic peptide, bought: ABclonal
Take B4: the binding result in assay [1] is listed as “binds”.

B5: biotinylated mouse vestigial-like protein 1 peptide, amino acids 20–51 (site 2 probe) (peptide, UniProt Q99NC0 20-51, looked up)
peptide: KTEWNAGSVIFTYFEGDINSMVDEHFSRALRN
modifications: also: biotin, position not given here
notes: mouse vestigial-like protein 1 (Vgll1), amino acids 20–51; also called mVgll1; Vgll1 peptide
For B5, in assay [3], the binding result was “binds”.
